Measurements taken from article PMC6050537 (2018).
Blank lines part the entries; values can stand above or below the binder they belong to. Non-standard residues stand in square brackets, D forms with d. 1Nal = N[C@@H](Cc1cccc2ccccc12)C(=O)O

Target: T1, Full length IDOL (1–445) (UniProt Q8WY64 1-445, NT-647-NHS dye (only the labelled copy in the MST assays))
T1 chain: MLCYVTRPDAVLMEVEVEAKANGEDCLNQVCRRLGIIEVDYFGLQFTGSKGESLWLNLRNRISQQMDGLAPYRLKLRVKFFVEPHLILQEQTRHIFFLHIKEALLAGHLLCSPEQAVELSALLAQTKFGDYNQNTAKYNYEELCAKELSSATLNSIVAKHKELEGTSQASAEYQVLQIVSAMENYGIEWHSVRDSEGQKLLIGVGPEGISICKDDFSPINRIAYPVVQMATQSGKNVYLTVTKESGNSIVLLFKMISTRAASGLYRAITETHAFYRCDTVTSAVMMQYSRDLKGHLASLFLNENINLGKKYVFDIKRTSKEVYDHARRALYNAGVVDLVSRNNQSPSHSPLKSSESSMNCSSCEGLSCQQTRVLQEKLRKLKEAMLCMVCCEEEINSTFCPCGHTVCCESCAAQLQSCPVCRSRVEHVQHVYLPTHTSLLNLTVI
Assay: MST

- Kd: 6.3 µM
Binder: cyclo(CF[1Nal]LYT) [RINGPep1 analogue containing 3-(1-naphthyl)-L-alanine]

- Kd: 6.6 µM
B1: RINGPep2 (cyclo-CF-Cha-LYT) (peptide)
chain: CFXLYT
HELM: PEPTIDE1{C.F.[Cha].L.Y.T}$PEPTIDE1,PEPTIDE1,1:R1-6:R2$$$V2.0
SMILES: CC(C)C[C@@H]1NC(=O)[C@H](CC2CCCCC2)NC(=O)[C@H](Cc2ccccc2)NC(=O)[C@H](CS)NC(=O)[C@H]([C@@H](C)O)NC(=O)[C@H](Cc2ccc(O)cc2)NC1=O
